In patent publication US20030152576A1 (published 2003):

T1: human CD14 with amino acids 39, 40, 41, 43 and 44 substituted with alanine (mut6) (human, UniProt P08571 20-345)
T1 construct: whole, on cells; The positions count on the mature protein (add 19 for the precursor entry); also called CD14mut6; CHO-Mut6
T1 sequence (looked up): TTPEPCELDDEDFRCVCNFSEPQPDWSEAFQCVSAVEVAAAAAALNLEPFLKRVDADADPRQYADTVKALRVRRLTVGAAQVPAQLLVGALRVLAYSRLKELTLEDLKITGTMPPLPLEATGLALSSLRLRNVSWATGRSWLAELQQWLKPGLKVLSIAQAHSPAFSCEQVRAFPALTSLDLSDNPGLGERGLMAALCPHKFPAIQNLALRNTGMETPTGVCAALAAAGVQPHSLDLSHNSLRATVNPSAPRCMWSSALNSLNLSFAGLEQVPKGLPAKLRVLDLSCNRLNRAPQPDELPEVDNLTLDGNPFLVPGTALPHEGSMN

B1: biotinylated recombinant HBsAg particles, which only contain S protein (b-rHBsAg) (other)
chain: MENITSGFLGPLLVLQAGFFLLTRILTIPQSLDSWWTSLNFLGGSPVCLGQNSQSPTSNHSPTSCPPICPGYRWMCLRRFIIFLFILLLCLIFLLVLLDYQGMLPVCPLIPGSTTTSTGPCKTCTTPAQGNSMFPSCCCTKPTDGNCTCIPIPSSWAFAKYLWEWASVRFSWLSLLVPFVQWFVGLSPTVWLSAIWMMWYWGPSLYSIVSPFIPLLPIFFCLWVYI
modifications: biotinylated on lysine residues (the three lysine residues which can become biotinylated all lie in the major antigenic region of the S protein; positions 122 and 141 are named)
notes: domain: S protein; Multimeric virus-like particle with lipid; also called biotinylated rHBsAg

Tests used:
[1] = target: human CD14 (human) (UniProt P08571); experiment: flow cytometry, hCD14-CHO cells, FITC-labelled mAb
[2] = target: mouse CD14 (mouse) (UniProt P10810); experiment: flow cytometry, mCD14-CHO cells, FITC-labelled mAb
[3] = target: T1, human CD14 with amino acids 39, 40, 41, …; experiment: flow cytometry on CHO cells transfected with mut6, 2% HS-HBSS, Strep-PE
[4] = target: B1; experiment: flow cytometry competition; b-rHBsAg pre-incubated with recombinant sCD14 in 2% HS-HBSS, then binding to monocytes of PBMC

Chain of mouse CD14 (mouse) (P10810 16-336): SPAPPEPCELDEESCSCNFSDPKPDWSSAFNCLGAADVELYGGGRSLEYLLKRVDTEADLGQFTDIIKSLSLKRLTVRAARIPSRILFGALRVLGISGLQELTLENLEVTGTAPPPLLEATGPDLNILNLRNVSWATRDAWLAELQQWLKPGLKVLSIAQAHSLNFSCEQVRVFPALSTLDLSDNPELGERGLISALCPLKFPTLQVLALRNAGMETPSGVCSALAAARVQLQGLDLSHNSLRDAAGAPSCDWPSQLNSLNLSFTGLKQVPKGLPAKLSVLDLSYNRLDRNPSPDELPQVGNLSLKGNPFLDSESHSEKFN

Molecule | Median Fluorescence [1] | Median Fluorescence [2] | binding result [3] | IC50 [4]
Mouse anti-human CD14 (clone M(P9)) (antibody) | 502 | 0 | – | –
Mouse anti-human CD14 (clone My4) (antibody) | 291 | 0.12 | – | –
Rat anti-mouse CD14-FITC (clone rmC5-3, IgG1) (antibody) | 0 | 24 | – | –
B1 | – | – | no binding | –
recombinant soluble CD14 (receptor, also called sCD14; recombinant sCD14) TTPEPCELDDEDFRCVCNFSEPQPDWSEAFQCVSAVEVEIHAGGLNLEPFLKRVDADADPRQYADTVKALRVRRLTVGAAQVPAQLLVGALRVLAYSRLKELTLEDLKITGTMPPLPLEATGLALSSLRLRNVSWATGRSWLAELQQWLKPGLKVLSIAQAHSPAFSCEQVRAFPALTSLDLSDNPGLGERGLMAALCPHKFPAIQNLALRNTGMETPTGVCAALAAAGVQPHSLDLSHNSLRATVNPSAPRCMWSSALNSLNLSFAGLEQVPKGLPAKLRVLDLSCNRLNRAPQPDELPEVDNLTLDGNPFLVPGTALPHEGSMNSGVVPACARSTLSVGVSGTLVL | – | – | – | > 2.5 µg/mL
